# pKd: −log10 of the molar value.
# Molecular target: Thermus thermophilus SoxB (Thermus thermophilus) (UniProt Q72IT0)
# Assay: ITC; SoxB (50 μM) in the cell, SoxYZ as the titrant; 25°C; 30 mM Tris/HCl pH 8.0, 200 mM NaCl; two replicate experiments fitted together to a hetero-association model (A + B ↔ AB)
# Sequence of UniProt Q72IT0 (Q72IT0 entry or part of it): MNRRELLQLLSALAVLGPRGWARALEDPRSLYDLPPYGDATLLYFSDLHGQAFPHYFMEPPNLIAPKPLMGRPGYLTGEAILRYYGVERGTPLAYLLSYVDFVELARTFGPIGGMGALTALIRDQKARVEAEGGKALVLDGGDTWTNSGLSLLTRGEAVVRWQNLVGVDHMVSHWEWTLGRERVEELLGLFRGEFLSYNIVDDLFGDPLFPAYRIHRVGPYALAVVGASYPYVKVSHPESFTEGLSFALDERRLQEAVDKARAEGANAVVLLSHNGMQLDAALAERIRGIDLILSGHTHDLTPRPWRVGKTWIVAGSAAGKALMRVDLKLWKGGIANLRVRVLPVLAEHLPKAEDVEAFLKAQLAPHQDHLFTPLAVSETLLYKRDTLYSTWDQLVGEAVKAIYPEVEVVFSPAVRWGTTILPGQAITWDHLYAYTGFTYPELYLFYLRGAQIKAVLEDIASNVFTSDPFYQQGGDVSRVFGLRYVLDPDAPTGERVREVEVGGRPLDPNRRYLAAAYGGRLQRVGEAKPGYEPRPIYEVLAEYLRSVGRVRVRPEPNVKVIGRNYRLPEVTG
pKd,dH,Substance
4.52,-2 kcal/mol,Thermus thermophilus SoxYZ-S-sulfonate (from UniProt Q72IS6 1-152; Q72IS7 1-108) (complex)
5.00,-5 kcal/mol,Thermus thermophilus SoxY_(C151E)Z variant (from UniProt Q72IS6 1-152; Q72IS7 1-108) (complex)
